From patent publication US20190322730A1
Numbering of substitutions follows the chain as printed. Each block holds one binder with its values, some of them ahead of it.

Columns and labels:
Experiment in all cases: binding screen of Example 5; method and unit not stated
C3c = C3c (UniProt P01024)
iC3b = iC3b (UniProt P01024)
C3b (human) = C3b (human) (UniProt P01024)
Sequence of C3b (human) (P01024 23-667 limits assumed, chain 1 of 2): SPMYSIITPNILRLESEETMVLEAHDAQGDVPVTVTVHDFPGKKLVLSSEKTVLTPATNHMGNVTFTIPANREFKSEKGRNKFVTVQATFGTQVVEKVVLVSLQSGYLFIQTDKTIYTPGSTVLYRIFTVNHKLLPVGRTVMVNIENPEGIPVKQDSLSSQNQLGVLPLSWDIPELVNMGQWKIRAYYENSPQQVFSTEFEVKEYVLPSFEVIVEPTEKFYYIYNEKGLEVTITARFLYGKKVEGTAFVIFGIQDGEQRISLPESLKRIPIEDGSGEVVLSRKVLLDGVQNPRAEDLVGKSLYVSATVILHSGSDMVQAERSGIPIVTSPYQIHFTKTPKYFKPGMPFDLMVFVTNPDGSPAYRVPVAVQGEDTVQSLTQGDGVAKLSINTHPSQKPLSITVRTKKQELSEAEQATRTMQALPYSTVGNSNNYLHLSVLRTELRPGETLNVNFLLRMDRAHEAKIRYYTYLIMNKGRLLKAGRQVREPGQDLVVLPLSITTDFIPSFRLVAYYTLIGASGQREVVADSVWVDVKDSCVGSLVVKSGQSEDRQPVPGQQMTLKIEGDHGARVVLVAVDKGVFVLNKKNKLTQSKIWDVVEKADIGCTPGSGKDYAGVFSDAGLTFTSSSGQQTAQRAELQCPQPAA
Sequence of C3b (human) (P01024 749-1663 limits assumed, chain 2 of 2): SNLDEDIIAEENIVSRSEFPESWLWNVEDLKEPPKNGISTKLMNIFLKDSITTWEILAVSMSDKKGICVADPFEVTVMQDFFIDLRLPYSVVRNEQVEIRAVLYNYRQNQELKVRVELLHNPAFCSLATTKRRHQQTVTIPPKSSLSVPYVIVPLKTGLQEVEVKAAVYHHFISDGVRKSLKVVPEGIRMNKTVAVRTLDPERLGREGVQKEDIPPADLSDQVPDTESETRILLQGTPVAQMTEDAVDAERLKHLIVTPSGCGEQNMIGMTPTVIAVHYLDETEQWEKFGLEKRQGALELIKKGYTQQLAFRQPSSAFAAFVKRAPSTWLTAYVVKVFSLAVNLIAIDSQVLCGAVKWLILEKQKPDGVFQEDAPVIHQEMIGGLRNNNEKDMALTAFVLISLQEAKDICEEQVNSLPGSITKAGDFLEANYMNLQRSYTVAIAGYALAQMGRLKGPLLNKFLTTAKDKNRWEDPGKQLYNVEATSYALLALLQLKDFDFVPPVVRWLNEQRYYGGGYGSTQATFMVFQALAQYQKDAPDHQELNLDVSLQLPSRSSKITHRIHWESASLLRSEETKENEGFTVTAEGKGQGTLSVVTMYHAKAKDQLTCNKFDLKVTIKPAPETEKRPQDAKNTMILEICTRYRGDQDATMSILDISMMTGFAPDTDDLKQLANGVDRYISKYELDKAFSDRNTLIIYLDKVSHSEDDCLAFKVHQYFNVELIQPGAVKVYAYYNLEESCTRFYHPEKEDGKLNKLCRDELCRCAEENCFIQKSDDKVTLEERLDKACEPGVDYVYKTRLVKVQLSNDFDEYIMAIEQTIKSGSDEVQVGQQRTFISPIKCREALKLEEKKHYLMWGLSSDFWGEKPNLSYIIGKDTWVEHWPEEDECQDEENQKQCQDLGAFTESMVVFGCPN

B1: antibody 38F5 (antibody, V domains shown)
VH: EVMLVESGGALVKPGGSLKLSCTASGFTFSNYAMSWVRQTPEKRLEWVAQTISSGGRYTYYPDSVKGRFTISRDNARNTLYLQMSSLRSEDTAMYYCVRRYYGNSYWYFDVWGAGTTVTVSS
VL: DIVMTQSPSSLSVSAGEKVTMNCKSSQSLLNSGNQKHYLTWYQQKPGQPPKLLIYGASTRGSGVPDRFTGSGSGTDFTLTISSVQAEDLAVYYCQNDHSYPYTFGGGTKLEIK
binding relative to negative control mIgG2 (C3c): 0.45 | binding relative to negative control mIgG2 (iC3b): 0.45

B3: antibody 3D8 (antibody, V domains shown)
VH: EIQLQQSGAELVKPGASVKISCKASGYSFTGYNMNWVKQSHGKSLEWIGNINPYYGSTNYNQKFKGKATLTVDKSSTTAYMQLDSLTSEDSAVYYCARGYYGGNYPFAYWGQGTLVTVSA
VL: DIQMTQSPASLSASVGETVTITCRASENIYSYLAWYQQKQGKSPQLLVYNAKTLAEGVPSRFSGSGSGTQFSLKINSLQPEDFGSYYCQHYYGTPYTFGGGSKVEIK
binding relative to negative control mIgG2 (C3c): 0.17 | binding relative to negative control mIgG2 (iC3b): 0.29

B5: antibody 3G8 (antibody, V domains shown)
VH: EIQLQQSGAELVKPGASVKISCMASGYSFTGYNMNWVKQSHGKGLEWIGNINPYYDSTSYNQKFKGKATLTVDKSSSTAYMQLNSLTSEDSAVYYCARENYDFVGFAYWGQGTLVTVSA
VL: QIVLSQSPAILSASPGEKVTMTCRASSSVSYMHWFQQKPGSSPKPWIYVTSNLASGVPPRFSGSGSGTSYSLTISRVEAEDAATYYCQQWSTNPLTFGAGTKLELK
binding relative to negative control mIgG2 (C3c): 0.22 | binding relative to negative control mIgG2 (iC3b): 0.25

Further lines, results first:

binding relative to negative control mIgG2 (C3c): 0.43 | binding relative to negative control mIgG2 (iC3b): 0.49
B2: antibody 62F2 (antibody, V domains shown)
VH: DVQLQESGPDLVKPSQSLSLTCTVTGYSITSGYSLHWIRQFPGNKLEWMGYIHYSGSTNYNPSLKSRISITRDTSKNQFFLKLNSVTSEDTATYHCARAWDYLDYWGQGTTLTVSS
VL: DIQMTQSPASLSASVGETVTITCRASENIYSQLAWYQQKQGKSPQLLVYDAKTLAEGVPSRFSGSGSDTQFSLKIISLQPEDFGRYYCHHHFGILYTFGGGTKLEMK

binding relative to negative control mIgG2 (C3c): 0.55 | binding relative to negative control mIgG2 (iC3b): 0.72
B4: antibody 63A3 (antibody, V domains shown)
VH: DVQLQESGPGLVKPSQSLSLTCSVTGYSITSGYYWNWIRQFPGNKLEWMGYIRYDGSNNYNPSLKNRISITRDTSKNQVFLKLNSVTPEDTATYYCARHYGYDGGAFDFWGQGTTLTVSS
VL: B3 VL with A25T, S31N, A34V, A55E, I75V, Y91H, Y96F, G100S, S102T, V104L

binding relative to negative control mIgG2 (C3b (human)): 0.06 | binding relative to negative control mIgG2 (C3c): 0.13 | binding relative to negative control mIgG2 (iC3b): 0.06
B6: antibody 38G10 (antibody, V domains shown)
VH: EVQLQQSGPELVKPGDSVKMSCKASGYTFTDFYMDWVKQSHGKSLEWIGYIYPHNGGTTYNQNFTGKATLTVDKSSNTAYMELHSLTSEDSAVYYCARRGGFDFDYWGQGTTLTVSS
VL: NIVMTQSPKSMSLSVGERVTLRCKASENVDTYVSWYQQKPEQSPKLLIYGASNRYTGVPDRFTGSGSATEFTLTISSVQAEDLVGYHCGQSHSYPLTFGAGTKLELK
